Values of other authors as cited in patent publication US20230090114A1, “METHODS FOR PROMOTING WEIGHT LOSS” (89BIO LTD., priority 2020, published 2023).

Conditions: in vivo; cited from earlier work

B1: recombinant human FGF-21: recombinant human FGF-21 (SEQ ID NO: 1 is native human FGF-21) (protein, listed as Homo sapiens)
chain: MHPIPDSSPLLQFGGQVRQRYLYTDDAQQTEAHLEIREDGTVGGAADQSPESLLQLKALKPGVIQILGVKTSRFLCQRPDGALYGSLHFDPEACSFRELLLEDGYNVYQSEAHGLPLHLPGNKSPHRDPAPRGPARFLPLPGLPPALPEPPGILAPQPPDVGSSDPLSMVGPSQGRSPSYAS
- half-life: 1 to 2 h
